Data on 16 molecules can be found in patent US20230115257A1 (published 2023).

Residue numbers refer to the chain shown, from its start.

One test has as its target SARS-CoV-1 spike protein (SARS-CoV-1, UniProt P59594 14-1195). Briefly: ELISA.
For test [1], the target named is SARS-CoV-2 (WIV02 isolate) prefusion stabilized spike trimer protein (UniProt P0DTC2 14-1213). Briefly: ELISA. A general note: An ELISA detects its analyte on a solid surface through an enzyme-linked reagent.

What is called IC50 is the midpoint of a concentration-inhibition curve. Lower therefore signals greater potency in that assay.

B1: 1-L10-A (antibody, V domains shown)
VH: EVKLEESGGGLVQPGGSMKLSCVASGFTFNNYWMNWVRQSPEKGLEWVAQMRLKSDNYATHYAESVKGRFTISRDDSKSSVYLQMNNLRAEDTGIYYCIEGYWTYWGQGTLVTVSA
VL: QIVLTQSPAIMSASLGERVTMTCTASSSVSSSYLHWYQQKPGSSPKLWIYSTSNLASGVPARFSGNGSGTSYSLTISSMEAEDAATYYCLQYHRSPPYTFGGGTKLEIK
As for B1, the IC50 was 7.5 nM with SARS-CoV-1 spike protein and 8.65 nM in test [1].

B2: 1-B11-A (antibody, V domains shown)
VH: QVQLQQSGPELVKPGASVKISCKASGYTFTDHYINWVKQRPGQGLEWIGWIFPGSGSTYYNEQFKGKATLTVDKSSNTAYMLLSSLTSEDSAVYFCARSGGLRLGFAYWGQGTLVTVSA
VL: DIQMTQTTSSLSASLGDRVTISCRASQDISNYLNWYQQKPDGTVKLLIYYTSRLHSGVPSRFSGSGSGTDYSLTISNLEQEDISTYFCQQVNTLPYTFGGGTKLEIK
Turning to B2, the IC50 in the test with SARS-CoV-1 spike protein came to 20.9 nM.

B3: 9-F6-A (antibody, V domains shown)
VH: EVQLQQSGPELVKPGASVKMSCKASGYTFTSYIMHWVKQKPGQGLEWIGYILPYNDGTKYNEKFKGKATLTSDKSSSTAYMELRSLTSEDSAVYYCARWGYSNFLDSWGQGTTLTVSS
VL: B2 VL with S30N, S76R, S84A, V91G, Y96P
With B3, the values for the IC50 (with SARS-CoV-1 spike protein; in test [1]) were 5.55 nM and 16.7 nM, respectively.

B4: 4-M3-A (antibody, V domains shown)
VH: EVQLQQSGPELVKPGDSVKISCKASGYSFTGYFMNWVMQSHGKSLEWIGRINPNNGETFYNQKFKGKATLTVDKSSDTAHMELRSLTSEDSAVYYCARGGTGTGWGQGTTLTVSS
VL: DILMTQSPSSMSVSLGDTVSITCHASQGISSNIGWLQQKPGKSFKGLIYYGTNLEDGVPSRFSGSGSGADYSLTISSLESEDLADYYCIQYAQFPYTFGGGTKLEIK
B4 yielded an IC50 in test [1] of 7.36 nM.

B5: 4-N22-A (antibody, V domains shown)
VH: QVQLQQPGTELVKPGASVKLSCKASGYTFTNYWMYWVKQRPGQGLDWIGNINPSNGGTNYNEKFKSKATLTVDKSSSTAYMQLSSLTSEDSAVYYCARETGNYWGQGTTLTVSS
VL: B4 VL with T22S, Y50H, L83F, I89V
As for B5, the IC50 in test [1] turned out to be 4.93 nM.

B6: 4-L4-A (antibody, V domains shown)
VH: QAYLQQSGAELVRPGASVKMSCKASGYTFTSYTVHWVKQTPRQGLEWIGGIYPGNVDTSYNQNFKGKATLTVDKSSSTAYMQLSSLTSEDSAVYFCARDGYYAMDYWGQGTSVTVSS
VL: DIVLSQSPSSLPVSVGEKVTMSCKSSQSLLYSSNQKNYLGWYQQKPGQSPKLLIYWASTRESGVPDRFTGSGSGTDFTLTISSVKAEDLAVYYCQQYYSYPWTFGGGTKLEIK
B6: in test [1], the IC50 is 8.34 nM.

B7: 3-E2-A (antibody, V domains shown)
VH: EVQLQQSGPELVKPGASVKISCKASGYTFTDYYMNWVKQSHGKSLEWIGDINPNNGGTSYTQKFKGKATLTVDKSSSKAYMELRSLTSEDSAVYYCARRGDGHYGGFTYWGQGTLVTVSA
VL: not shown
B7 gave a half-maximal inhibitory concentration (IC50) in test [1] of 18.4 nM.

B8: 2-O12-A (antibody, V domains shown)
VH: B7 VH with P53S, S59T, T61D, K74R, K78T, Y104F
VL: not shown
In test [1], B8 yielded an IC50 of 14.9 nM.

B9: 8-A17-A (antibody, V domains shown)
VH: QVQLKESGPGLVAPSQSLSITCTVSGFSLTSYAISWVRQPPGKGLEWLGVVWPGGGTNYNSALKSRLSINKDNSKSQVFLKMNSLQTDDTGRYYCARTGYHFDYWGQGTTLTVSS
VL: QIVLTQSPAIMSASPGEKVTMTCSVSSSVSYMHWYQQKSGTSPKRWIYDTSKLASGVPARFSGSGSGTSYSLTISSMEAEDAATYYCQQWSSNPPMYTFGGGTKLEIK
With B9, the IC50 with SARS-CoV-1 spike protein came to 5.1 nM.

B10: 8-L17-A (antibody, V domains shown)
VH: EVQLVESGGGLVQPKGSLKLSCAASGFTFNTYAMHWVRQAPGKGLEWVARIRSKSSNYARYYADSVKDRFTISRDDSQSMLYLQMNNLKTEDTAMYYCVRDHDYYGSSYWFAYWGQGTLVTVSA
VL: DVVMTQTPLSLPVSLGDQASISCRSSQSLVHNNGNTYLHWYLQKPGQSPKLLIYKVSNRFSGVPDRFSGSGSGTDFTLKISRVEAEDLGVYFCSQSTHVPWTFGGGTKLEIK
In the case of B10, the midpoint of inhibition in test [1], the IC50, lay at 60.8 nM.

B11: 8-H3-A (antibody, V domains shown)
VH: B10 VH with R60T, A112T
VL: B10 VL with N32D, Y41F, A85T
B11: in test [1], the midpoint of inhibition, the IC50, lay at 19.4 nM.

B12: 2-P2-A (antibody, V domains shown)
VH: EVQLQQSGAELVRPGSSVKMSCKTSGYTFTSYGINWVKQRPGQGLEWIGYIYIGNGYTEYNEKFKGKATLTSDTSSSTAYMQLSSLTSEDSAIYFCARGGVDYWGQGTTLTVSS
VL: B10 VL with V3L, L29I, N32S, H39E, F92Y, S94F, S96G, T97S, W101Y
B12 displayed an IC50 in the test with SARS-CoV-1 spike protein of 17.9 nM.

B13: 6-O12-A (antibody, V domains shown)
VH: QVQLQQPGTELVKPGASVKLSCKASGYTFTSYWMHWVKQRPGQGLEWIGNINPSNGGTNYNEKFRSKATLTVDKSSSTAYMQLSSLTSEDSAVYYCARLGWFLPLGSWGQGTTLTVSS
VL: QIVLTQSPAIMSASLGEVITLTCSASSSVSYMHWYQQKSGTSPKLLIYSTSNLASGVPSRFSGSGSGTFYSLTISSVEAEDAADYYCHQWSGYMYTFGGGTKLEIK
In the case of B13, the values for the IC50 (with SARS-CoV-1 spike protein; in test [1]) were 5.4 nM and 7.62 nM, respectively.

B14: 2-G20-A (antibody, V domains shown)
VH: EVQLQQSGPELVKPGASVKMSCKASGYTFPSYVLHWVKQKPGQGLEWIGYIYPYNDGTNYNEKFKGKATLTSDKSSSTAYMELSSLTSEDSAVYYCARGDYGDSAWFPYWGQGTLVTVSA
VL: DIVLTQSPASLAVSLGQRATISCRASKSVSTSGYSYMHWYQQKPGQPPKLLIYLASNLKSGVPARFSGGGSGTDFTLNIHPVEEEDAATYYCQLSRELPWTFGGGTKLEIK
Regarding B14, the IC50 turned out to be 6.65 nM in the test with SARS-CoV-1 spike protein and 18.3 nM in test [1].

B15: 2-H7-A (antibody, V domains shown)
VH: QAYLQQSGAELVRPGASVKMSCKASGYTFTGYTMHWVKQTPRQGLEWIGAIYPENGDTSYNQKFKGKATLTVDKSSSTAYMQLSSLTSEDSAVYFCARDGYDVLYGMDYWGQGTSVTVSS
VL: B14 VL with K59E, G69S, L94H, E109D
For the molecule B15, the IC50 in test [1] was determined as 7.21 nM.

B16: 8-H5-A (antibody, V domains shown)
VH: QVTLKESGPGILQSSQTLSLTCSLSGFSLSTSGMGVSWVRQPSGKGLEWLAHIYWDDDKRYTPSLKSRLTISTDSSRKQVFLKITSVDTADTATYYCARRDLHDYDGWFAYWGQGTLVTVSA
VL: DIVMTQSQKFMSTAVGDRVSVTCKASQNVGTNVAWYQQKPGQSPKALIYSASFRYSGVPDRFSGSGSGTDFTLTISNVQSEDLAEYFCQQYNSYPLTFGSGTKLEIK
As to B16, the midpoint of inhibition in test [1], the IC50, lay at 12.8 nM.
